Reference: paper PMC2174332

Target: muscle-specific receptor tyrosine kinase (MuSK), Torpedo orthologue (Torpedo (endogenous in electric tissue))
Test: cross-linking

40-kD COOH-terminal fragment of MAGI-1c (Torpedo) (domain or fragment)
percent of total MuSK in the 140-kD cross-link product: < 30%
